{
  "source": "paper PMC4012256",
  "proteins": {"B1": {"name": "integrin αV subunit (of αVβ3): αV(N266Q)β3(N339S) (protein)", "parent chain": "MAFPPRRRLRLGPRGLPLLLSGLLLPLCRAFNLDVDSPAEYSGPEGSYFGFAVDFFVPSASSRMFLLVGAPKANTTQPGIVEGGQVLKCDWSSTRRCQPIEFDATGNRDYAKDDPLEFKSHQWFGASVRSKQDKILACAPLYHWRTEMKQEREPVGTCFLQDGTKTVEYAPCRSQDIDADGQGFCQGGFSIDFTKADRVLLGGPGSFYWQGQLISDQVAEIVSKYDPNVYSIKYNNQLATRTAQAIFDDSYLGYSVAVGDFNGDGIDDFVSGVPRAARTLGMVYIYDGKNMSSLYNFTGEQMAAYFGFSVAATDINGDDYADVFIGAPLFMDRGSDGKLQEVGQVSVSLQRASGDFQTTKLNGFEVFARFGSAIAPLGDLDQDGFNDIAIAAPYGGEDKKGIVYIFNGRSTGLNAVPSQILEGQWAARSMPPSFGYSMKGATDIDKNGYPDLIVGAFGVDRAILYRARPVITVNAGLEVYPSILNQDNKTCSLPGTALKVSCFNVRFCLKADGKGVLPRKLNFQVELLLDKLKQKGAIRRALFLYSRSPSHSKNMTISRGGLMQCEELIAYLRDESEFRDKLTPITIFMEYRLDYRTAADTTGLQPILNQFTPANISRQAHILLDCGEDNVCKPKLEVSVDSDQKKIYIGDDNPLTLIVKAQNQGEGAYEAELIVSIPLQADFIGVVRNNEALARLSCAFKTENQTRQVVCDLGNPMKAGTQLLAGLRFSVHQQSEMDTSVKFDLQIQSSNLFDKVSPVVSHKVDLAVLAAVEIRGVSSPDHVFLPIPNWEHKENPETEEDVGPVVQHIYELRNNGPSSFSKAMLHLQWPYKYNNNTLLYILHYDIDGPMNCTSDMEINPLRIKISSLQTTEKNDTVAGQGERDHLITKRDLALSEGDIHTLGCGVAQCLKIVCQVGRLDRGKSAILYVKSLLWTETFMNKENQNHSYSLKSSASFNVIEFPYKNLPIEDITNSTLVTTNVTWGIQPAPMPVPVWVIILAVLAGLLLLAVLVFVMYRMGFFKRVRPPQEEQEREQLQPHENGEGNSET"}},
  "assay": "HEK293T adhesion to FN-coated surface, crystal violet, Ca2+-Mg2+",
  "conditions": "glycan lost; control: αVβ3(N339S)",
  "data": [
    {"protein": "B1", "values": [
      {"measurement": "other: cell adhesion, percent_of_wt", "value": "decreases"}
    ]}
  ]
}
